Molecular target: human LDL (low-density lipoprotein) (human)
Assay: SPR; LDL saturated with ALK1ecto

Chain of human LDL (low-density lipoprotein) (human) (P04114 28-4563): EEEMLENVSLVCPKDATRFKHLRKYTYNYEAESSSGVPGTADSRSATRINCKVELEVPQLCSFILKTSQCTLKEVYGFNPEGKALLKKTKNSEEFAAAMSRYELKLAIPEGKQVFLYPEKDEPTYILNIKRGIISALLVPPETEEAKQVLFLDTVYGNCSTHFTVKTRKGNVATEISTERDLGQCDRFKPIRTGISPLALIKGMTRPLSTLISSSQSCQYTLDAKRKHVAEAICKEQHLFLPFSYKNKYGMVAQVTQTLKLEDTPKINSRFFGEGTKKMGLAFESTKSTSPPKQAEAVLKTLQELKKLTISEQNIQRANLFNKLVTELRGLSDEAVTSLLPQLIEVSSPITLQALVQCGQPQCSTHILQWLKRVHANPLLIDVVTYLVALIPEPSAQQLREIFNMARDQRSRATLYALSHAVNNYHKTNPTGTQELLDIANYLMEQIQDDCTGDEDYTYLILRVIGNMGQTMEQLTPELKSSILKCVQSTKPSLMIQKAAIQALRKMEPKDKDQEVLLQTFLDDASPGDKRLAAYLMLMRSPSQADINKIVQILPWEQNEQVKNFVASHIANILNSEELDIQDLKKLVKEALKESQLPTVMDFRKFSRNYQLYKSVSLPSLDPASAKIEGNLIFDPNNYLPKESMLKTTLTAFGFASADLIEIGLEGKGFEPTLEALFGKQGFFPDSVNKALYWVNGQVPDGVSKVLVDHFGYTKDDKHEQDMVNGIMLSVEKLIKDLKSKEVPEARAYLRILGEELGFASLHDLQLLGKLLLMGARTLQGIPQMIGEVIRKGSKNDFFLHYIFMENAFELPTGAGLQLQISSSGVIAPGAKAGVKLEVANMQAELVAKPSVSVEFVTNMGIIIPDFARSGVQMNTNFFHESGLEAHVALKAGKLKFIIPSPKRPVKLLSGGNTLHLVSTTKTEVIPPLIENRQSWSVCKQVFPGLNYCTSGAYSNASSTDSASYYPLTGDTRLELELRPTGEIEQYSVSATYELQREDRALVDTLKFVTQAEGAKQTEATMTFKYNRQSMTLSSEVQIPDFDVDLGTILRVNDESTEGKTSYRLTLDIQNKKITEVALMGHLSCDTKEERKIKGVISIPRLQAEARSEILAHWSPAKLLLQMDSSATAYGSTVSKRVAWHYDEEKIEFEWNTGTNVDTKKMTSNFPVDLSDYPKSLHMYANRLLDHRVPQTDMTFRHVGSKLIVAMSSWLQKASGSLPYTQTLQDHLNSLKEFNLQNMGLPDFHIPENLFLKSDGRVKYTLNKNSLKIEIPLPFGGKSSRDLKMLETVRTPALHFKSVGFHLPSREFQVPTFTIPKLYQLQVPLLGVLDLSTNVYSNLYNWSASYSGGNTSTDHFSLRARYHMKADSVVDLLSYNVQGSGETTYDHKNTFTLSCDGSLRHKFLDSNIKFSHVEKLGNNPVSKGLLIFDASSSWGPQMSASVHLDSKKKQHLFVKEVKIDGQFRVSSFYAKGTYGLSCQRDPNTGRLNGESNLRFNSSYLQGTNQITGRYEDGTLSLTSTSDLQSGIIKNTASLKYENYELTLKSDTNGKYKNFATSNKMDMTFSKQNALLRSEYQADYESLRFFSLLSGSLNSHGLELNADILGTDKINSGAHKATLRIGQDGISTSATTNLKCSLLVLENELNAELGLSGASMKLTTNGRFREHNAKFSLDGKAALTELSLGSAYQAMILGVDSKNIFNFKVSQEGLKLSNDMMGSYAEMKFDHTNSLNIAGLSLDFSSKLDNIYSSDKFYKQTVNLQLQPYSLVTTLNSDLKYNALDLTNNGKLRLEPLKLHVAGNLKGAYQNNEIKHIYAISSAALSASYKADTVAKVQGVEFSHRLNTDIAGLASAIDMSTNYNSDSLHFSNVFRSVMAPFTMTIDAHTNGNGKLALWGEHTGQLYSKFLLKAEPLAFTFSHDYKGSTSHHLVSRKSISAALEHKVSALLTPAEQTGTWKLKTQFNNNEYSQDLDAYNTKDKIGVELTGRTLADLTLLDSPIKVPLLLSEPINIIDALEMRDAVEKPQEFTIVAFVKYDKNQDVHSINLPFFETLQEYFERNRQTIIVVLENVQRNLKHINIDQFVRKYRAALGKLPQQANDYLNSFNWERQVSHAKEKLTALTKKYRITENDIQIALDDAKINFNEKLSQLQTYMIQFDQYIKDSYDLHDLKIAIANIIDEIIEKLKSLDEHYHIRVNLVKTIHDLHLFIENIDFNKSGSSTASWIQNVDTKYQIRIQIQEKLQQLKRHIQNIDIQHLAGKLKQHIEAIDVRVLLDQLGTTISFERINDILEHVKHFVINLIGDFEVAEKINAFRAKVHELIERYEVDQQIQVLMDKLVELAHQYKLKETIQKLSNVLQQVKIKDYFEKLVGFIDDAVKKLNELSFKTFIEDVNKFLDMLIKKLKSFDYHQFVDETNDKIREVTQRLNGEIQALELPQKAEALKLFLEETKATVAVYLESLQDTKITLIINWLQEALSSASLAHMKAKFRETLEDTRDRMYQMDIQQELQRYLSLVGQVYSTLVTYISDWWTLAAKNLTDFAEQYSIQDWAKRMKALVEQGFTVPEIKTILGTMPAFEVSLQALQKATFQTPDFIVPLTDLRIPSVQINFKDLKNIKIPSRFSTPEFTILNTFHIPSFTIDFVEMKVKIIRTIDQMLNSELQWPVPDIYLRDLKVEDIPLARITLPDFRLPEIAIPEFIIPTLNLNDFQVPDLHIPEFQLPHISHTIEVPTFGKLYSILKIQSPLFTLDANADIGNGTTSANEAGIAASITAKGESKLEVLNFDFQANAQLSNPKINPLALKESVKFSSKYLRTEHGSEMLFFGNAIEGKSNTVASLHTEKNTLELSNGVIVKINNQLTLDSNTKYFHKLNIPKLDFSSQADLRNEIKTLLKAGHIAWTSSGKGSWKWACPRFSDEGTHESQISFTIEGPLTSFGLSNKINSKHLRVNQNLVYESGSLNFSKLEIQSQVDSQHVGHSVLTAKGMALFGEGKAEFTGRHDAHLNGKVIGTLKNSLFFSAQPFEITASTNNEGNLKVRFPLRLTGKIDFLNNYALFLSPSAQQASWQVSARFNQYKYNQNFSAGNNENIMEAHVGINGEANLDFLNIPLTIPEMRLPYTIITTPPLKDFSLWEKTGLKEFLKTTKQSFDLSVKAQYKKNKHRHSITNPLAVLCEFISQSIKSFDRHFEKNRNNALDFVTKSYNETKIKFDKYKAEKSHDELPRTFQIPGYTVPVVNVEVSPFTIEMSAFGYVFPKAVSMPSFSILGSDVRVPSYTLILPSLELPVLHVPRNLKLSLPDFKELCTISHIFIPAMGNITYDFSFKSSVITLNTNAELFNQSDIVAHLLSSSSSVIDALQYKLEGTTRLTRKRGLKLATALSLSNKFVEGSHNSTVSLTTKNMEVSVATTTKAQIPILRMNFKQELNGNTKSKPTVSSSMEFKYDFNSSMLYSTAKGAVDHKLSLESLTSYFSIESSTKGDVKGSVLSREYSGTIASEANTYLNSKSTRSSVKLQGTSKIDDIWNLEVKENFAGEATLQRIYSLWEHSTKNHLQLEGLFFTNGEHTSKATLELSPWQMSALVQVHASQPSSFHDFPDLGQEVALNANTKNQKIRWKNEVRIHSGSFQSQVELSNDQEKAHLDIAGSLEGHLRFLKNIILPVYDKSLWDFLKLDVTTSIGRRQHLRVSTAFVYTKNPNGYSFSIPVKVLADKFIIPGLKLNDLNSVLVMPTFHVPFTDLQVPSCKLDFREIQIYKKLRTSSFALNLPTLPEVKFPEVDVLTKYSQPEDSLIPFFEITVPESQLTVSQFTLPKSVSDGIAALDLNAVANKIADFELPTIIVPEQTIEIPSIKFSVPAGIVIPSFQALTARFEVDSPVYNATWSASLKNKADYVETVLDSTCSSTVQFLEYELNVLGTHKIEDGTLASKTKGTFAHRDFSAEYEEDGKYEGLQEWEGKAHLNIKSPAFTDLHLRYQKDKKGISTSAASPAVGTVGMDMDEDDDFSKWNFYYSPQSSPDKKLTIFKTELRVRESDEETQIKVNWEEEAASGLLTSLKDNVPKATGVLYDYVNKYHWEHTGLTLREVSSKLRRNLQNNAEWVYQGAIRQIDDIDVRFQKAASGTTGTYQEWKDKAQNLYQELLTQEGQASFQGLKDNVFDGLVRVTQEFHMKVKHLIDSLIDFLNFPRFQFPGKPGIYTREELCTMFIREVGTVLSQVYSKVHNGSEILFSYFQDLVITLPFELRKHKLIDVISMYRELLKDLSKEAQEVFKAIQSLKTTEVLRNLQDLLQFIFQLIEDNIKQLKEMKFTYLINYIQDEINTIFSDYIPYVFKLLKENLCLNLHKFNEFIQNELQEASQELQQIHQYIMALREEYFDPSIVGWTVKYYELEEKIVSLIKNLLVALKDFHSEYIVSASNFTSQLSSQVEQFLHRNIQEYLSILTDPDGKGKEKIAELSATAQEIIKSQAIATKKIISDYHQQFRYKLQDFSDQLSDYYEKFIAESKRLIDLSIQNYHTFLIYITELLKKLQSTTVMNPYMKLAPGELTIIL

Kd: 2 nM
B1: LDLR^ecto-(His)6 (domain or fragment)
chain: not shown
